A short description of the data set: label from the status in PepcDB records.

For “MNIEIKDTLISEEQLQEKVKELALQIERDFEGEEIVVIAVLKGSFVFAADLIRHIKNDVTIDFISASSYGNQTETTGKVKLLKDIDVNITGKNVIVVEDIIDSGLTLHFLKDHFFMHKPKALKFCTLLDKPERRKVDLTAEYVGFQIPDEFIVGYGIDCAEKYRNLPFIASVVTEESYNLKSR”, the protein production result is reported as “not failed”.

On to “MNIFKKIKNLSAEFKQNWFQYLILFTSISILNQFVFIPLFRYITTFVLQAGAIPFISYSNLVIILSEHPFVVFFLLIELALLLFVIYSQFALIILFIKNNFALKASISEFGQCLRHFRLGSLLLLAIYFLLVIPFANVVFRTPLLAKIKIPQFIIDYMTRSGILLAILIIFYLVIFVLAFRFLLTLPIMVIYKTTTREAMKKSAFLMKKNWRKVIGFFVPLGILAIVIMAINVGGAYLLQLIWDTFPGKFALIMATINLTLFQIISEVFLIWVSAVSLYFLVKLVTKNNNEIKEKVTNNKIILITIISIWSLAITGNIIENVFYLAGLDDHVPVTISHRGVNDKNGVQNTIESLKKTAKLKPDYVEIDVHETKDNQFVIMHDENLKKLTGKDKRPKELTLNQLTKLIAKEDGYKGKVVSLDQYMQAAQKLKQKLLIEIKTTPNDSNEFLVKFNKKYGHEILKNHYQLQSLDYRVVTKMQQLNPKIETLYIQPYNLIYPQSVADGYSMEYSTLSSDFIWQAHLQNHVVYAWTVNNKSEMKKMMYEHVDGIITDNISMLNTAIKEFQSRQSYANRILNYMMAFPILD”, for which the protein production result was “failed”.

As for “MNIGVIILAAGEGKRFGGDKLLAKIDNTPIIMRTIRIYGDLEKIIIVGKYVNEMLPLLMDQIVIYNPFWNEGISTSLKLGLRFFKDYDAVLVALGDMPFVTKEDVNKIINTFKPNCKAVIPTHKGERGNPVLISKSLFNEIEKLRGDVGARVILNKIKIEELCFIECSEGVLIDIDKKEDLMRLRDFHP”, the protein production entry is “failed”.

“MNIILNGGPAELHGTTVADLIAQTAPQKPFAVAVNTVFVPKGAYAETVLNENDKIDIVRPVVGG”: the protein production entry is given as “failed”.

On to “MNILLAMIPAFFWGTTYAVTQFTLPDWPPVLLGALRALPAGLLLLAIKPSLPKKHEWKVLLVLGTINIAFFFGLIFVMALTLPSAISGVGMISVPVFAMLFGWAVYKRQPSAIQGISGAVLIALAWFLFDPSSISLNPIGLGAMLAAIMCIVIGSSVTKSLGTKMHWWTVLTWQLILGGVLLSIAAAVLATINPQPYVHAVQNIDMTNTLGLLWVIVLNTALGYGMYVWLLQRMSVVDFTFGGIANPIAGIVSGLLLLGENFTPLQYSLMVGMIVMSLLPQILTSLRARKEAITV”, for which the protein production result is “failed”.

As to “MNILLLIGGLILILLGANGLTDGAASVAKRFRIPSIVIGLTIVAFGTSAPELTVSVASALKGSADIAIGNVVGSNIFNTLMIVGCTALFAPIIITRNTLRKEIPLCILSSVVLLICANDIFLDNATENILNRVDGLLLLCFFAIFMGYTFAIAFPKSSAAPEPAAPEHTAPEEEIKLLSWWKSILYIIGGLAALIYGGQLFVNGATGIARSMGVSESIIGLTLVAGGTSLPELATSIVAALKKNPEMAIGNVIGSNLFNIFFVLGCSASITPLHLSGITNFDLFTLVGSSILLWLFGLFFAKRTITRIEGSIMILCYVAYTVVLIYNS”, the protein production entry is recorded as “failed”.

Consider “MNILLRLQLFFQITGHYASYFLAYIFETIFFLIFVFVSLIAMIYLFRKYMARLQLRYGPNRVGKFGSLQLIADAIKLVGKESILPKLRDDFAYKTAPYIVFIGLVVGFILIPYGDFYWIGSLTITHSDVSLILFFGAIAMMPIGEILAGISSHNKYALLGAMRGVAKDVSFEVPMMLSAIALVMMDSAVNKTPLEFSSLVSTQFIPFGILQPLGLFVFMVAMIARSSYTPFDLSESDSEIVSGYSTEYSGMRFGLFYMGMFGSIFLGSLVISLLYLGGYNGPYSSYAGFIYLLIKGLIMVLISFLIWLSMPRIRIDRFVNFGWKILLPIAIINLIWAGFLTLGVIS”, for which the protein production entry is recorded as “failed”.

In the case of “MNILSRIFARTPSLRTRVVVATAIGAAIPVLIVGTVVWVGITNDRKERLDRRLDEAAGFAIPFVPRGLDEIPRSPNDQDALITVRRGNVIKSNSDITLPKLQDDYADTYVRGVRYRVRTVEIPGPEPTSVAVGATYDATVAETNNLHRRVLLICTFAIGAAAVFAWLLAAFAVRPFKQLAEQTRSIDAGDEAPRVEVHGASEAIEIAEAMRGMLQRIWNEQNRTKEALASARDFAAVSSHELRTPLTAMRTNLEVLSTLDLPDDQRKEVLNDVIRTQSRIEATLSALERLAQGELSTSDDHVPVDITDLLDRAAHDAARIYPDLDVSLVPSPTCIIVGLPAGLRLAVDNAIANAVKHGGATLVQLSAVSSRAGVEIAIDDNGSGVPEGERQVVFERFSRGSTASHSGSGLGLALVAQQAQLHGGTASLENSPLGGARLVLRLPGPS”, the protein production entry was “not failed”.

For the origin of these results see a protein production outcome set (Wang et al. 2014).
